{
  "source": "IntAct's records for PubMed 35512704",
  "parents": {"B1": {"name": "Speckle-type POZ protein (Homo sapiens), O43791 (parent)", "chain": "MSRVPSPPPPAEMSSGPVAESWCYTQIKVVKFSYMWTINNFSFCREEMGEVIKSSTFSSGANDKLKWCLRVNPKGLDEESKDYLSLYLLLVSCPKSEVRAKFKFSILNAKGEETKAMESQRAYRFVQGKDWGFKKFIRRDFLLDEANGLLPDDKLTLFCEVSVVQDSVNISGQNTMNMVKVPECRLADELGGLWENSRFTDCCLCVAGQEFQAHKAILAARSPVFSAMFEHEMEESKKNRVEINDVEPEVFKEMMCFIYTGKAPNLDKMADDLLAAADKYALERLKVMCEDALCSNLSVENAAEILILADLHSADQLKTQAVDFINYHASDVLETSGWKSMVVSHPHLVAEAYRSLASAQCPFLGPPRKRLKQS"}},
  "data": [
    {"variants_of": "B1", "settings": "with gbra6_human GABRA6, Q16445", "values": [
      {"variant": "F133V", "effect of a mutation on the interaction": "with no effect"}
    ]},
    {"variants_of": "B1", "settings": "with gata1_human GATA1, P15976", "values": [
      {"variant": "F133V", "effect of a mutation on the interaction": "with no effect"}
    ]},
    {"variants_of": "B1", "settings": "with p66b_human GATAD2B", "values": [
      {"variant": "F133V", "effect of a mutation on the interaction": "with no effect"}
    ]},
    {"variants_of": "B1", "settings": "with gna11_human GNA11, P29992", "values": [
      {"variant": "F133V", "effect of a mutation on the interaction": "with no effect"}
    ]},
    {"variants_of": "B1", "settings": "with gna13_human GNA13, Q14344", "values": [
      {"variant": "F133V", "effect of a mutation on the interaction": "with no effect"}
    ]},
    {"variants_of": "B1", "settings": "with gnaq_human GNAQ", "values": [
      {"variant": "F133V", "effect of a mutation on the interaction": "with no effect"}
    ]},
    {"variants_of": "B1", "settings": "with grm1_human GRM1, Q13255", "values": [
      {"variant": "F133V", "effect of a mutation on the interaction": "with no effect"}
    ]},
    {"variants_of": "B1", "settings": "with grm3_human GRM3, Q14832", "values": [
      {"variant": "F133V", "effect of a mutation on the interaction": "with no effect"}
    ]},
    {"variants_of": "B1", "settings": "with gtpb4_human GTPBP4, Q9BZE4", "values": [
      {"variant": "F133V", "effect of a mutation on the interaction": "with no effect"}
    ]},
    {"variants_of": "B1", "settings": "with h33_human H3-3A", "values": [
      {"variant": "F133V", "effect of a mutation on the interaction": "with no effect"}
    ]},
    {"variants_of": "B1", "settings": "with hdac1_human HDAC1, Q13547", "values": [
      {"variant": "F133V", "effect of a mutation on the interaction": "with no effect"}
    ]},
    {"variants_of": "B1", "settings": "with hdac3_human HDAC3, O15379", "values": [
      {"variant": "F133V", "effect of a mutation on the interaction": "with no effect"}
    ]},
    {"variants_of": "B1", "settings": "with hgf_human HGF", "values": [
      {"variant": "F133V", "effect of a mutation on the interaction": "with no effect"}
    ]},
    {"variants_of": "B1", "settings": "with h31_human H3C1, P68431", "values": [
      {"variant": "F133V", "effect of a mutation on the interaction": "with no effect"}
    ]},
    {"variants_of": "B1", "settings": "with hlab_human HLA-B", "values": [
      {"variant": "F133V", "effect of a mutation on the interaction": "with no effect"}
    ]},
    {"variants_of": "B1", "settings": "with hnf1a_human HNF1A", "values": [
      {"variant": "F133V", "effect of a mutation on the interaction": "with no effect"}
    ]},
    {"variants_of": "B1", "settings": "with igf1r_human IGF1R", "values": [
      {"variant": "F133V", "effect of a mutation on the interaction": "with no effect"}
    ]},
    {"variants_of": "B1", "settings": "with il7ra_human IL7R", "values": [
      {"variant": "F133V", "effect of a mutation on the interaction": "with no effect"}
    ]},
    {"variants_of": "B1", "settings": "with int12_human INTS12, Q96CB8", "values": [
      {"variant": "F133V", "effect of a mutation on the interaction": "with no effect"}
    ]},
    {"variants_of": "B1", "settings": "with ist1_human IST1, P53990", "values": [
      {"variant": "F133V", "effect of a mutation on the interaction": "with no effect"}
    ]},
    {"variants_of": "B1", "settings": "with jak1_human JAK1, P23458", "values": [
      {"variant": "F133V", "effect of a mutation on the interaction": "with no effect"}
    ]},
    {"variants_of": "B1", "settings": "with jak3_human JAK3, P52333", "values": [
      {"variant": "F133V", "effect of a mutation on the interaction": "with no effect"}
    ]},
    {"variants_of": "B1", "settings": "with kat2a_human KAT2A", "values": [
      {"variant": "F133V", "effect of a mutation on the interaction": "with no effect"}
    ]},
    {"variants_of": "B1", "settings": "with kdm5a_human KDM5A", "values": [
      {"variant": "F133V", "effect of a mutation on the interaction": "with no effect"}
    ]},
    {"variants_of": "B1", "settings": "with kdm5c_human KDM5C", "values": [
      {"variant": "F133V", "effect of a mutation on the interaction": "with no effect"}
    ]},
    {"variants_of": "B1", "settings": "with vgfr2_human KDR", "values": [
      {"variant": "F133V", "effect of a mutation on the interaction": "with no effect"}
    ]},
    {"variants_of": "B1", "settings": "with lims1_human LIMS1, P48059", "values": [
      {"variant": "F133V", "effect of a mutation on the interaction": "with no effect"}
    ]},
    {"variants_of": "B1", "settings": "with maga6_human MAGEA6, P43360", "values": [
      {"variant": "F133V", "effect of a mutation on the interaction": "with no effect"}
    ]},
    {"variants_of": "B1", "settings": "with m3k1_human MAP3K1, Q13233", "values": [
      {"variant": "F133V", "effect of a mutation on the interaction": "with no effect"}
    ]},
    {"variants_of": "B1", "settings": "with mk10_human MAPK10, P53779", "values": [
      {"variant": "F133V", "effect of a mutation on the interaction": "with no effect"}
    ]},
    {"variants_of": "B1", "settings": "with mk14_human MAPK14, Q16539", "values": [
      {"variant": "F133V", "effect of a mutation on the interaction": "with no effect"}
    ]},
    {"variants_of": "B1", "settings": "with mk03_human MAPK3, P27361", "values": [
      {"variant": "F133V", "effect of a mutation on the interaction": "with no effect"}
    ]},
    {"variants_of": "B1", "settings": "with mk04_human MAPK4, P31152", "values": [
      {"variant": "F133V", "effect of a mutation on the interaction": "with no effect"}
    ]},
    {"variants_of": "B1", "settings": "with mk06_human MAPK6, Q16659", "values": [
      {"variant": "F133V", "effect of a mutation on the interaction": "with no effect"}
    ]},
    {"variants_of": "B1", "settings": "with sin1_human MAPKAP1, Q9BPZ7", "values": [
      {"variant": "F133V", "effect of a mutation on the interaction": "with no effect"}
    ]},
    {"variants_of": "B1", "settings": "with mcl1_human MCL1, Q07820", "values": [
      {"variant": "F133V", "effect of a mutation on the interaction": "with no effect"}
    ]},
    {"variants_of": "B1", "settings": "with mdm2_human MDM2, Q00987", "values": [
      {"variant": "F133V", "effect of a mutation on the interaction": "with no effect"}
    ]},
    {"variants_of": "B1", "settings": "with mitf_human MITF", "values": [
      {"variant": "F133V", "effect of a mutation on the interaction": "with no effect"}
    ]},
    {"variants_of": "B1", "settings": "with mlh1_human MLH1, P40692", "values": [
      {"variant": "F133V", "effect of a mutation on the interaction": "with no effect"}
    ]},
    {"variants_of": "B1", "settings": "with mtor_human MTOR", "values": [
      {"variant": "F133V", "effect of a mutation on the interaction": "with no effect"}
    ]},
    {"variants_of": "B1", "settings": "with myb_human MYB", "values": [
      {"variant": "F133V", "effect of a mutation on the interaction": "with no effect"}
    ]},
    {"variants_of": "B1", "settings": "with mybb_human MYBL2, P10244", "values": [
      {"variant": "F133V", "effect of a mutation on the interaction": "with no effect"}
    ]},
    {"variants_of": "B1", "settings": "with myc_human MYC", "values": [
      {"variant": "F133V", "effect of a mutation on the interaction": "with no effect"}
    ]},
    {"variants_of": "B1", "settings": "with mycn_human MYCN", "values": [
      {"variant": "F133V", "effect of a mutation on the interaction": "with no effect"}
    ]},
    {"variants_of": "B1", "settings": "with ncoa3_human NCOA3, Q9Y6Q9", "values": [
      {"variant": "F133V", "effect of a mutation on the interaction": "with no effect"}
    ]},
    {"variants_of": "B1", "settings": "with ikba_human NFKBIA", "values": [
      {"variant": "F133V", "effect of a mutation on the interaction": "with no effect"}
    ]},
    {"variants_of": "B1", "settings": "with nox1_human NOX1, Q9Y5S8", "values": [
      {"variant": "F133V", "effect of a mutation on the interaction": "with no effect"}
    ]},
    {"variants_of": "B1", "settings": "with npm_human NPM1, P06748", "values": [
      {"variant": "F133V", "effect of a mutation on the interaction": "with no effect"}
    ]},
    {"variants_of": "B1", "settings": "with nsd3_human NSD3, Q9BZ95", "values": [
      {"variant": "F133V", "effect of a mutation on the interaction": "with no effect"}
    ]},
    {"variants_of": "B1", "settings": "with ntrk2_human NTRK2, Q16620", "values": [
      {"variant": "F133V", "effect of a mutation on the interaction": "with no effect"}
    ]},
    {"variants_of": "B1", "settings": "with ntrk3_human NTRK3, Q16288", "values": [
      {"variant": "F133V", "effect of a mutation on the interaction": "with no effect"}
    ]},
    {"variants_of": "B1", "settings": "with pak3_human PAK3, O75914", "values": [
      {"variant": "F133V", "effect of a mutation on the interaction": "with no effect"}
    ]},
    {"variants_of": "B1", "settings": "with prkn_human PRKN", "values": [
      {"variant": "F133V", "effect of a mutation on the interaction": "with no effect"}
    ]},
    {"variants_of": "B1", "settings": "with pb1_human PBRM1, Q86U86", "values": [
      {"variant": "F133V", "effect of a mutation on the interaction": "with no effect"}
    ]},
    {"variants_of": "B1", "settings": "with pcbp1_human PCBP1, Q15365", "values": [
      {"variant": "F133V", "effect of a mutation on the interaction": "with no effect"}
    ]},
    {"variants_of": "B1", "settings": "with pdcd1_human PDCD1, Q15116", "values": [
      {"variant": "F133V", "effect of a mutation on the interaction": "with no effect"}
    ]},
    {"variants_of": "B1", "settings": "with pgfrb_human PDGFRB", "values": [
      {"variant": "F133V", "effect of a mutation on the interaction": "with no effect"}
    ]},
    {"variants_of": "B1", "settings": "with pdk1_human PDK1, Q15118", "values": [
      {"variant": "F133V", "effect of a mutation on the interaction": "with no effect"}
    ]},
    {"variants_of": "B1", "settings": "with pk3ca_human PIK3CA", "values": [
      {"variant": "F133V", "effect of a mutation on the interaction": "with no effect"}
    ]},
    {"variants_of": "B1", "settings": "with pk3cb_human PIK3CB", "values": [
      {"variant": "F133V", "effect of a mutation on the interaction": "with no effect"}
    ]}
  ]
}
